This note sets out measurements from US8168591 (University of California, dated 2012).

The target of the assay is T1, recombinant soluble integrin αvβ3 (UniProt P06756 31-992; P05106 27-718).
T1 construct: extracellular domain; 'extracellular domain' is my reading of that; Made in CHO K1 cells and purified on Ni-NTA; The docking simulation used PDB 1L5G; also called soluble αvβ3
Put plainly: Table 2 grade, αvβ3 binding (ELISA-type assay with soluble αvβ3). For orientation: ELISA stands for enzyme-linked immunosorbent assay.

T1 sequence (P06756 31-992, chain 1 of 2): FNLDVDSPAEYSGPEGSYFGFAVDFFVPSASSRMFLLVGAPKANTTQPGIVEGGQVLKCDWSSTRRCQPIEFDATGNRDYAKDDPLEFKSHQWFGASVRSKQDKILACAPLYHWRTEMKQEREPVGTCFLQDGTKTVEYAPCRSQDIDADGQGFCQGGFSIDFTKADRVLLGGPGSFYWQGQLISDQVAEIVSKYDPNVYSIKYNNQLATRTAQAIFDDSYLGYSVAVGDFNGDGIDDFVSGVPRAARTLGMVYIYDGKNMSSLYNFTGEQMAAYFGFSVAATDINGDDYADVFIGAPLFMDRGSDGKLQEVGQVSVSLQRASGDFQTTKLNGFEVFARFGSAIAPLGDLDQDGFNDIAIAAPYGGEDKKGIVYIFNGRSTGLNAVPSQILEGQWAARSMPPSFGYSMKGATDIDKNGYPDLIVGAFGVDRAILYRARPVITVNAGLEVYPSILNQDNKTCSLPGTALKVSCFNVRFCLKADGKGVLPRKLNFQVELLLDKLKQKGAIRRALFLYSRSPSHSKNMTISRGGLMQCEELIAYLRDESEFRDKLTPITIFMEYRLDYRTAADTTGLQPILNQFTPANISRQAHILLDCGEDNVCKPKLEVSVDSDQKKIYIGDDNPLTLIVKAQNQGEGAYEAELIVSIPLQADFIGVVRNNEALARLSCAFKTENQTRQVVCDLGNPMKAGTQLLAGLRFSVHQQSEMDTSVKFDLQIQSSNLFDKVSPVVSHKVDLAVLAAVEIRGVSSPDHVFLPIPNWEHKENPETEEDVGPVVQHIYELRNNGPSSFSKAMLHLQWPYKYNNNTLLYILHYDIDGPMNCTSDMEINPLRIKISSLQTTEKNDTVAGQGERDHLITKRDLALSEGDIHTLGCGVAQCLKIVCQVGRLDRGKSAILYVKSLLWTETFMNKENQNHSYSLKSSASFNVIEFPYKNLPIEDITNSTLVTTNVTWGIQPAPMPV
T1 sequence (P05106 27-718, chain 2 of 2): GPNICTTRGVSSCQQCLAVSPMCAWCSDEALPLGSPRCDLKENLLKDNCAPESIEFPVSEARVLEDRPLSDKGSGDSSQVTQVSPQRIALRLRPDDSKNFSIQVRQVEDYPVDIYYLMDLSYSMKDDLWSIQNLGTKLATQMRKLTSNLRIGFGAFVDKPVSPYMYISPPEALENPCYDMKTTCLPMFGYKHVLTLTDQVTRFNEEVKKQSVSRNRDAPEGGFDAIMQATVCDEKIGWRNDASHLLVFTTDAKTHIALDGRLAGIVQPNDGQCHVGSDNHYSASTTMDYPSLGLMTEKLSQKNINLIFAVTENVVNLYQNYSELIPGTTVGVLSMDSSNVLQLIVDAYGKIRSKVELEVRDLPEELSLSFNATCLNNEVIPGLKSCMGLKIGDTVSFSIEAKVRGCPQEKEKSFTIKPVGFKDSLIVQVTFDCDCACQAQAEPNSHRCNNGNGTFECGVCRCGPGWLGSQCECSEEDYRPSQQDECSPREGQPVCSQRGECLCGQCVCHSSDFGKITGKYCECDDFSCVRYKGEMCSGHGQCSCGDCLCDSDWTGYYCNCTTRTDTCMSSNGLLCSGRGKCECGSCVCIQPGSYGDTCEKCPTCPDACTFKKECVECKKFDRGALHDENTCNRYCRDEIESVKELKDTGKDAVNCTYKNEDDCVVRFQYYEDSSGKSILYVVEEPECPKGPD

B1: FGF-1 Glu102/Tyr109/Asn110 to Ala mutant (3×A) (ligand)
chain: FNLPPGNYKKPKLLYCSNGGHFLRILPDGTVDGTRDRSDQHIQLQLSAESVGEVYIKSTETGQYLAMDTDGLLYGSQTPNEECLFLARLEENHAATYISKKHAEKNWFVGLKKNGSCKRGPRTHYGQKAILFLPLPVSSD
notes: also called 3xA; E1 02A/Y109A/Q110A
Take B1: the binding result is on record as “binds”.
